Assay results published in patent US20080305187A1, “Use of Parathyroid Hormone for Treating Periodontal Disease and for Other Dental Applications” (priority 2005, published 2008).
Each block holds one molecule with its values, some of them ahead of it.

Key:
[1] = test system: patient with adult periodontitis; experiment: Treatment of patient with periodontal disease prior to dental implant therapy; assay type: in vivo, human; conditions: person, 20 μg once-daily subcutaneous for 3 months prior to implant surgery
Description: A person presents with a history of adult periodontitis. The patient has experienced significant alveolar bone loss confirmed radiographically, and has a number of tooth sites with pocket probing depth measurements of about 7 mm. The patient has discussed with their dentist possible extraction of severely-affected teeth and their replacement with dental implants, but the prospects for success are diminished in view of the bone loss that has occurred. Standard periodontal care is provided, including scaling and root planning, and those teeth with poor prognosis are extracted. Prior to implant surgery, the patient is administered 20 μg of hPTH(1-34) once-daily by subcutaneous injection for 3 months prior to implant surgery.

[2] = test system: systemic bone loss associated with osteoporosis; conditions: R. M. Neer et al., NEJM 2001; cited from earlier work

complications post placement of the implants [1]: No complications
Molecule: CC[C@H](C)[C@H](NC(=O)[C@H](CCC(=O)O)NC(=O)[C@H](CO)NC(=O)[C@@H](NC(=O)[C@@H](N)CO)C(C)C)C(=O)N[C@@H](CCC(N)=O)C(=O)N[C@@H](CC(C)C)C(=O)N[C@@H](CCSC)C(=O)N[C@@H](Cc1cnc[nH]1)C(=O)N[C@@H](CC(N)=O)C(=O)N[C@@H](CC(C)C)C(=O)NCC(=O)N[C@@H](CCCCN)C(=O)N[C@@H](Cc1cnc[nH]1)C(=O)N[C@@H](CC(C)C)C(=O)N[C@@H](CC(N)=O)C(=O)N[C@@H](CO)C(=O)N[C@@H](CCSC)C(=O)N[C@@H](CCC(=O)O)C(=O)N[C@@H](CCCN=C(N)N)C(=O)N[C@H](C(=O)N[C@@H](CCC(=O)O)C(=O)N[C@@H](Cc1c[nH]c2ccccc12)C(=O)N[C@@H](CC(C)C)C(=O)N[C@@H](CCCN=C(N)N)C(=O)N[C@@H](CCCCN)C(=O)N[C@@H](CCCCN)C(=O)N[C@@H](CC(C)C)C(=O)N[C@@H](CCC(N)=O)C(=O)N[C@@H](CC(=O)O)C(=O)N[C@H](C(=O)N[C@@H](Cc1cnc[nH]1)C(=O)N[C@@H](CC(N)=O)C(=O)N[C@@H](Cc1ccccc1)C(=O)O)C(C)C)C(C)C [hPTH(1-34), human PTH(1-34)]

B1: parathyroid hormone (peptide, UniProt P01270 32-115, looked up)
Parathyroid hormone: SVSEIQLMHNLGKHLNSMERVEWLRKKLQDVHNFVALGAPLAPRDAGSQRPRKKEDNVLVESHEKSLGEADKADVNVLTKAKSQ
modifications: Parathyroid hormone
BMD [2]: increases BMD
risk of vertebral and non-vertebral bone fracture [2]: reduces the risk of vertebral and non-vertebral bone fracture
